Measured values: the supplement of paper PMC9732359
± gives the uncertainty stated by the source.

test: protein stability index of a GFP-peptide fusion (yeast GPS) (PSI 1-4); higher = more stable; sorted into four equal gates, so the index is relative within each strain; conditions: ubr1∆
Outline: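 Plasmids isolated from each sorting gate were PCR-amplified and Illumina-sequenced, and barcodes assigned the reads to strains. The gates, four of equal size, were set by GFP/Cherry fluorescence ratio on mid-log cultures in leucine-free medium. These cultures were yeast carrying a pooled library of tiled 17-residue yeast protein peptides fused downstream of GFP on a plasmid that also expresses Cherry. The protein stability index is the sum of every gate's read frequency times its gate number.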

| Sequence | protein stability index |
| --- | --- |
| FKNTRETAQAINGWELT [RPL17A] | 1.4 ± 0.033 |
| FKSTMLQVSEKDLFELE [ARP7] | 1.4 ± 0.098 |
| FLARVIKEKFDEFIKTH [IRR1] | 2.88 ± 0.074 |
| FLELTRRADVKTATVKI [RPL38] | 1.2 ± 0.042 |
| FLKEKDTVAELQAQLDY [FAS2] | 3.02 ± 0.067 |
| FLKYYGAHKFLDTYLPE [SIR2] | 1.67 ± 0.052 |
| FLLKAYINVSRGTDIDR [SRB5] | 3.08 ± 0.22 |
| FLLVPSKQVQVSQQPLS [ECM29] | 2.17 ± 0.043 |
| FLNEARDKAGRLAEVNL [RPO21] | 1.47 ± 0.055 |
| FLNHAFDYMNRYWVQKE [CDC53] | 1.94 ± 0.046 |
| FLSQGLHVVITLLREVV [CSN12] | 2.13 ± 0.057 |
| FLYEILSSLKSFAIYSS [SRB8] | 1.14 ± 0.047 |
| FMHDPSVFYNIANMVLP [SIR2] | 1.7 ± 0.036 |
| FMRQNLEWNMANLLFKK [RPC82] | 2.85 ± 0.063 |
| FNFVLLGQIGACHVEVP [COB] | 1.6 ± 0.089 |
| FNLISNAGTEKEKESKK [YLR335W/NUP2] | 3.45 ± 0.068 |
| FNNQGKLDLFKYFTELS [MED1] | 2.88 ± 0.092 |
| FNRENKVSPADAAKKAL [RPS26A] | 3.4 ± 0.073 |
| FNTNFDDEFGDLDAVFF [SNF6] | 3.01 ± 0.035 |
| FPLCVHLVSNELEQLSS [RPL10] | 2.44 ± 0.049 |
| FPRTRFEAQIDSVEFIF [RPN10] | 2.81 ± 0.068 |
| FQKETNMKVTILHGSKS [PRP28] | 3.18 ± 0.21 |
| FQLIDMKDKEINIQKYN [CSI1] | 2.57 ± 0.14 |
| FQLVNDVMDELITSSAR [SIR3] | 3.23 ± 0.071 |
| FQQQQQQQQQQQQPQPQ [PGD1] | 3.05 ± 0.21 |
| FQVHERLAPLIKEENDM [ARP7] | 3.22 ± 0.28 |

| Sequence | protein stability index |
| --- | --- |
| FQVSNVISLGPNLATFI [YJL039C/NUP192] | 2.17 ± 0.054 |
| FREAIVATEPLLDILVK [PRP8] | 1.54 ± 0.031 |
| FRENMSKEETVDFIKHS [PRE3] | 3.24 ± 0.085 |
| FRFDSIQRETLLPTNNG [GRR1] | 2.92 ± 0.033 |
| FRGARKNKGLVVSPYDY [DIB1] | 2.82 ± 0.081 |
| FRKIKLRVDEVQGKNLL [RPS1A] | 3.36 ± 0.065 |
| FSEGTSADREIQRTLME [RPT4] | 3.1 ± 0.087 |
| FSERAAMFAALQQKQQQ [SWI1] | 2.01 ± 0.027 |
| FSSPAALMKTLIKFVDL [NUT1] | 1.78 ± 0.12 |
| FSWGRPADSTYGAYNTQ [PRE4] | 3.04 ± 0.047 |
| FTCSCNSLTVDGNNANY [RPN14] | 2.75 ± 0.044 |
| FTGDFLRRVEERFTKSK [FAS1] | 2.78 ± 0.27 |
| FTIDAKPPISDSVFSFG [YLR335W/NUP2] | 2.69 ± 0.042 |
| FTLKQWNRLTISVTDTE [COR1] | 1.12 ± 0.047 |
| FTNLGIIVQYLTKFRQK [RGR1] | 2.28 ± 0.07 |
| FTNRIPSKTPEVYMRYR [SWI3] | 2.03 ± 0.054 |
| FTPEEEAAIRRENEWAE [SKP1] | 3.3 ± 0.11 |
| FTPKLIYDFITLFSSIE [ECM29] | 2.38 ± 0.053 |
| FTQPALTLMEKAAFEDL [FAS1] | 2.9 ± 0.07 |
| FTVNVLYPDSSSFKKNL [RPN3] | 2.44 ± 0.057 |
| FVDLVEHFLKLNIDFGS [YML103C/NUP188] | 2.84 ± 0.094 |
| FVPNDGCLNFVDENDEV [RPS23A] | 2.65 ± 0.055 |
| FVPVPSLAGFHKVQTKL [RPS7A] | 2.75 ± 0.088 |
| FYLYMLVQKFGGADQVT [SWI1] | 1.75 ± 0.14 |
| FYMLNAGIRPKFILALN [RPN1] | 1.37 ± 0.058 |
| GAAGAWMMNGALQILNS [FAS2] | 1.68 ± 0.057 |

| Sequence | protein stability index |
| --- | --- |
| GADVTNTTQDNGGDKEL [YCS4] | 3.26 ± 0.074 |
| GAHGNSDPVCLFVCNKD [POP3] | 2.8 ± 0.059 |
| GAISAVAATNTPIIFIG [SRP54] | 2.66 ± 0.086 |
| GAKVKTMRRQKLTILQE [RET1] | 2.22 ± 0.086 |
| GALDVEGLCIVAGSKCW [RRP45] | 2.9 ± 0.13 |
| GANDLGFTASVSNQENA [MED1] | 3.39 ± 0.11 |
| GASTGNANTGFSFGGTQ [YGL172W/NUP49] | 2.33 ± 0.063 |
| GAVGLKDLTLCRYSCLA [YCS4] | 2.13 ± 0.085 |
| GCGTVKRFNIGADPNYR [RPR2] | 3.46 ± 0.068 |
| GCSKICDLSSKFNKSKA [YCS4] | 2.99 ± 0.057 |
| GDDVVNDVQGIDDVQTI [RPP1] | 3.18 ± 0.081 |
| GDHSSVPVALKGQGPFT [YMR129W/POM152] | 1.83 ± 0.2 |
| GDTVRILDTSQSESRQK [SNU114] | 2.9 ± 0.04 |
| GDVKNMEDVKIQKEEEP [SWI3] | 3.14 ± 0.12 |
| GDYDSHDISRYVRAKFL [PRP8] | 1.43 ± 0.055 |
| GEEDAVDLLLEIESIDK [RPN1] | 3.33 ± 0.057 |
| GEITFDGIGGLTEQIRE [RPT4] | 3.54 ± 0.062 |
| GESIMSEEPTDFGFDLD [MCD1] | 3.24 ± 0.095 |
| GFEQVKIALGSPIVNVL [RRI2] | 2.52 ± 0.12 |
| GFERLTVNEPQMSDKHA [SRB7] | 3.16 ± 0.051 |
| GFETSKNIKIIMATNRL [RPT6] | 3.28 ± 0.063 |
| GFFENIETEFLLFTVKL [IRR1] | 3.12 ± 0.07 |
| GFKTPKTAIEGSYIDKK [RPS11A] | 3.201 ± 0.031 |
| GFNMKKITTSTEDQKVT [SRP68] | 2.42 ± 0.04 |
| GFNSIWKIPQNDIPQTE [SSN2] | 3.25 ± 0.076 |
| GGGAARRQAVDVSPLRR [RPS5] | 1.85 ± 0.093 |
